We go through eleven molecules from patent US20100260668A1 (published 2010).

Several values for one entry are separate records, joined by “and”; a condition that tells them apart may be missing. Identical values can stand only once.

For one assay, the target named is T1, PlGF (UniProt P49763-2 21-149, limits assumed).
T1 construct: bought antigen coated on the ELISA plate; also called Placental GF
T1 sequence (looked up): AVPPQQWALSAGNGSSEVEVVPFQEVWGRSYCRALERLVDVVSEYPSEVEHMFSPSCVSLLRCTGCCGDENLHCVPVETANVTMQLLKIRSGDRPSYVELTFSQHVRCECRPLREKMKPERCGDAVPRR
Briefly: direct bind ELISA, reference antibody. Background: In an ELISA, binding on a coated surface is turned into a signal by an enzyme label.

The target in another assay is T2, HGF-His tag (UniProt P14210 32-728).
T2 construct: Bought antigen coated on the ELISA plate; not shown: His tag
Briefly: direct bind ELISA (ref Ab).

A further assay concerns the target biotinylated ErbB3 (UniProt P21860 20-643, limits assumed, biotinylated). The experiment in a line: capture ELISA, antibody captured by anti-human IgG Fc, biotinylated ErbB3.
The target in another assay is hIGF1 (human, UniProt P05019 49-118). Briefly: cell-based or functional assay.
The next assay addresses IGF2 (UniProt P01344 25-91). Briefly: cell-based or functional assay.
For the next assay, the target named is T3, HGF (HGF-His tag) (UniProt P14210 32-728).
T3 construct: Bought reagent
The experiment in a line: Direct Bind ELISA, antigen on plate; C-terminal VD.

In assay [1] the target is T4, RON (MSP Receptor ECD-His tag) (UniProt Q04912 25-957, limits assumed).
T4 construct: extracellular domain; Bought reagent
Briefly: Direct Bind ELISA, antigen on plate; N-terminal VD.

T2 sequence (P14210 32-728 limits assumed): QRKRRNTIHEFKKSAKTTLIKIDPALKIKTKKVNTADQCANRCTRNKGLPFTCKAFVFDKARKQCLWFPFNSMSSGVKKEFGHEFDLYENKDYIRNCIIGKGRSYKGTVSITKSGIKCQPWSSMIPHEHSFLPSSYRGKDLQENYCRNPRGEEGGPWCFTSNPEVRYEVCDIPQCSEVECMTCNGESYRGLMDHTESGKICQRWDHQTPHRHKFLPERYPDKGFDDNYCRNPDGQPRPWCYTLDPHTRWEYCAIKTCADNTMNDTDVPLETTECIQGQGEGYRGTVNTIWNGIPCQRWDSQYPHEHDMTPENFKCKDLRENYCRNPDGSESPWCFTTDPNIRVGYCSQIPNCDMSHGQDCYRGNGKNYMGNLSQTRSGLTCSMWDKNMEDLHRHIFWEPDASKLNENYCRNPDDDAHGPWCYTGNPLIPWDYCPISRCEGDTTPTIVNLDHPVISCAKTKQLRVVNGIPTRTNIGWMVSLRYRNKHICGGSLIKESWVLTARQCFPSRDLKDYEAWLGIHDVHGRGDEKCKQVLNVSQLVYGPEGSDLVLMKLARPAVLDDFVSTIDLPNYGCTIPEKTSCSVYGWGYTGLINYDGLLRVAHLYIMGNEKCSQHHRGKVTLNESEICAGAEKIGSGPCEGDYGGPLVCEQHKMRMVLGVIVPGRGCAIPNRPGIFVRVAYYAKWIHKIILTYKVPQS
T3 sequence (P14210 32-728 limits assumed): as above

B1: AB074 (antibody, human IgG1, kappa, V domains shown)
VH: QVQLKQSGPGLVQPSQSLSITCTVSGFSLTTYGIHWVRQSPGKGLEWLGVMWSGGDTDYDAAFISRLSISKDNSKSQVFFKMNSLQANDTGIYYCARYRFYGMDYWGQGTSVTVSS
VL: AIQMTQSSSSFSVSLGDRVTITCKASEDIYNRFAWYQQKPGNAPRLLISGAASLEAGVPSRFSGSGSGQDYTLSITSLQTEDVATYYCQQYWSTPWTFGGGTKLEIKR
For orientation: EC50 means the midpoint of the concentration-response curve. A low value points to an effect from little substance. B1: the midpoint of the response in the assay with PlGF, the EC50, lay at 0.49 nM.

B2: AB012 (antibody, human IgG1, kappa, V domains shown)
VH: QVQLVESGGGLVKPGGSLRLSCAASGFTFSDYYMSWIRQAPGKGLEWVSYISSSGSTIYYADSVKGRFTISRDNAKNSLYLQMNSLRAEDTAVYYCARDEYNSGWYVLFDYWGQGTLVTVSS
VL: DIQMTQSPSSVSASVGDRVTITCRASQGISSWLAWYQQKPGKAPNLLIYEASSLQSGVPSRFGGSGSGTDFTLTISSLQPEDFATYYCQQANGFPWTFGQGTKVEIKR
notes: Vectors V1/V2
As for B2, in the assay with HGF-His tag, the concentration for a half-maximal effect (EC50) is 0.15 nM and 0.17 nM and 0.16 nM.

B3: AB063 (antibody, human IgG1, kappa, V domains shown)
VH: EVQLVESGGGLVQPGGSLRLSCAASGFTFSIYSMNWVRQAPGKGLEWVSYISSSSSTIYYADSVKGRFTISRDNAKNSLYLQMNSLRDEDTAVYYCARDRGDFDAFDIWGQGTMVTVSS
VL: DIQMTQSPSSLSASVGDRVTITCQASQDITNYLNWYQQKPGKAPKLLIYDASNLETGVPSRFSGSGSGTDFTFTISSLQPEDIATYNCQQCENFPITFGQGTRLEIKR
In turn, B3 showed a concentration for a half-maximal effect (EC50) with biotinylated ErbB3 of 0.67 nM. This lies in the sub-nanomolar range.

B4: AB010 (antibody, human IgG1, lambda, V domains shown)
VH: QVQLVQSGAEVKKPGASVKVSCKASGYTFTSYDINWVRQATGQGLEWMGWMNPNSGNTGYAQKFQGRVTMTRNTSISTAYMELSSLRSEDTAVYYCARDPYYYYYGMDVWGQGTTVTVSS
VL: QSVLTQPPSVSAAPGQKVTISCSGSSSNIENNHVSWYQQLPGTAPKLLIYDNNKRPSGIPDRFSGSKSGTSATLGITGLQTGDEADYYCETWDTSLSAGRVFGGGTKLTVLG
Regarding B4, in the assay with hIGF1, the “pIGF1R Cellular Assay (hIGF1 Neutralization IC50 nM)” value came to 1.7 nM. Also, in the assay with IGF2, the “pIGFR1 Cellular Assay (IGF2 induced IC50 nM)” value is 0.3 nM.

B5: DVD033 (RON (seq. 1) and HGF (seq. 1) DVD-Ig) (bispecific antibody, IgG1)
VH: EVQLVQSGGGLVKPGGSLRLSCAASGFTFSSYAMHWVRQAPGKGLEWVAVISYDGSNKYYADSVKGRFTISRDNSKNTLYLQMNSLRAEDTAVYYCARFSGWPNNYYYYGMDVWGQGTTVTVSSASTKGPQVQLVESGGGLVKPGGSLRLSCAASGFTFSDYYMSWIRQAPGKGLEWVSYISSSGSTIYYADSVKGRFTISRDNAKNSLYLQMNSLRAEDTAVYYCARDEYNSGWYVLFDYWGQGTLVTVSS
VL: DVVMTQSPLSLPVTPGEPASISCRSSQSLLHSNGFNYVDWYLQKPGQSPHLLIYFGSYRASGVPDRFSGSGSGTDFTLKISRVEAEDVGVYYCMQALQTPPWTFGQGTKVEIRRTVAAPDIQMTQSPSSVSASVGDRVTITCRASQGISSWLAWYQQKPGKAPNLLIYEASSLQSGVPSRFGGSGSGTDFTLTISSLQPEDFATYYCQQANGFPWTFGQGTKVEIKR
notes: Outer AB005, inner AB012; HC vector V1 (wild-type hIgG1 constant), LC vector V2 (kappa constant); also called DVD033H; DVD033L
With B5, the EC50 in the assay with HGF (HGF-His tag) worked out at 11.9 nM; in assay [1], 0.22 nM.

B6: DVD041 (bispecific antibody, human IgG1, lambda)
heavy: not shown
light: DIQMTQSPSSLSASVGDRVTITCSASQDISNYLNWYQQKPGKAPKVLIYFTSSLHSGVPSRFSGSGSGTDFTLTISSLQPEDFATYYCQQYSTVPWTFGQGTKVEIKRTVAAPQSVLTQPPSVSAAPGQKVTISCSGSSSNIENNHVSWYQQLPGTAPKLLIYDNNKRPSGIPDRFSGSKSGTSATLGITGLQTGDEADYYCETWDTSLSAGRVFGGGTKLTVLGQPKAAPSVTLFPPSSEELQANKATLVCLISDFYPGAVTVAWKADSSPVKAGVETTTPSKQSNNKYAASSYLSLTPEQWKSHRSYSCQVTHEGSTVEKTVAPTECS
As for B6, the “C-terminal VD pIGF1R Cellular Assay (hIGF1 Neutralization IC50 nM)” value with hIGF1 was 16.8 nM. Also, the “C-terminal VD pIGFR1 Cellular Assay (IGF2 induced IC50 nM)” value in the assay with IGF2 was 1.5 nM.

B7: DVD045 (VEGF (seq. 1) and HGF (seq. 1) DVD-Ig) (bispecific antibody, IgG1)
VH: EVQLVESGGGLVQPGGSLRLSCAASGYTFTNYGMNWVRQAPGKGLEWVGWINTYTGEPTYAADFKRRFTFSLDTSKSTAYLQMNSLRAEDTAVYYCAKYPHYYGSSHWYFDVWGQGTLVTVSSASTKGPQVQLVESGGGLVKPGGSLRLSCAASGFTFSDYYMSWIRQAPGKGLEWVSYISSSGSTIYYADSVKGRFTISRDNAKNSLYLQMNSLRAEDTAVYYCARDEYNSGWYVLFDYWGQGTLVTVSS
VL: DIQMTQSPSSLSASVGDRVTITCSASQDISNYLNWYQQKPGKAPKVLIYFTSSLHSGVPSRFSGSGSGTDFTLTISSLQPEDFATYYCQQYSTVPWTFGQGTKVEIKRTVAAPDIQMTQSPSSVSASVGDRVTITCRASQGISSWLAWYQQKPGKAPNLLIYEASSLQSGVPSRFGGSGSGTDFTLTISSLQPEDFATYYCQQANGFPWTFGQGTKVEIKR
notes: HC vector V1 (wild-type hIgG1 constant), LC vector V2 (kappa constant); also called DVD045H; DVD045L
Consider B7, for which the response with HGF (HGF-His tag) was half-maximal at 185 nM (EC50).

B8: AB047 (antibody, human IgG1, kappa, V domains shown)
VH: QVQLQQSGAELVKPGASVKISCKASGYTFTDYYINWVKLAPGQGLEWIGWIYPGSGNTKYNEKFKGKATLTIDTSSSTAYMQLSSLTSEDTAVYFCVRDSPFFDYWGQGTLLTVSS
VL: DIVLTQSPDSLAVSLGERVTMNCKSSQSLLNSGMRKSFLAWYQQKPGQSPKLLIYWASTRESGVPDRFTGSGSGTDFTLTISSVQAEDVAVYYCKQSYHLFTFGSGTKLEIKR
As for B8, the concentration for a half-maximal effect (EC50) in the assay with PlGF is 0.13 nM and 0.14 nM and 0.17 nM.

B9: AB079 (antibody, human IgG1, kappa, V domains shown)
VH: EVQLVQSGAEVKKPGESLKISCKGSGYSFTTYWMHWVRQMPGKGLEWMGEINPTNGHTNYNPSFQGQVTISADKSISTAYLQWSSLKASDTAMYYCARNYVGSIFDYWGQGTLVTVSS
VL: DIQMTQSPSSLSASVGDRVTITCKASENVVSYVSWYQQKPGKAPKLLIYGASNRNTGVPSRFSGSGSGTDFTLTISSLQPEDFATYYCGQSYNYPYTFGQGTKLEIKR
notes: Vectors V1/V2
Turning to B9, the concentration giving a half-maximal response (EC50) with HGF-His tag was 0.48 nM and 0.39 nM and 0.4 nM and 0.41 nM.

B10: DVD048 (RON (seq. 1) and VEGF (seq. 1) DVD-Ig) (bispecific antibody, IgG1)
VH: EVQLVQSGGGLVKPGGSLRLSCAASGFTFSSYAMHWVRQAPGKGLEWVAVISYDGSNKYYADSVKGRFTISRDNSKNTLYLQMNSLRAEDTAVYYCARFSGWPNNYYYYGMDVWGQGTTVTVSSASTKGPEVQLVESGGGLVQPGGSLRLSCAASGYTFTNYGMNWVRQAPGKGLEWVGWINTYTGEPTYAADFKRRFTFSLDTSKSTAYLQMNSLRAEDTAVYYCAKYPHYYGSSHWYFDVWGQGTLVTVSS
VL: DVVMTQSPLSLPVTPGEPASISCRSSQSLLHSNGFNYVDWYLQKPGQSPHLLIYFGSYRASGVPDRFSGSGSGTDFTLKISRVEAEDVGVYYCMQALQTPPWTFGQGTKVEIRRTVAAPDIQMTQSPSSLSASVGDRVTITCSASQDISNYLNWYQQKPGKAPKVLIYFTSSLHSGVPSRFSGSGSGTDFTLTISSLQPEDFATYYCQQYSTVPWTFGQGTKVEIKR
notes: HC vector V1 (wild-type hIgG1 constant), LC vector V2 (kappa constant); also called DVD048H; DVD048L
Turning to B10, the half-maximal effective concentration (EC50) in assay [1] is 0.46 nM. This lies in the sub-nanomolar range.

B11: AB062 (antibody, human IgG1, kappa, V domains shown)
VH: QVQLQQWGAGLLKPSETLSLTCAVYGGSFSGYYWSWIRQPPGKGLEWIGEINHSGSTNYNPSLKSRVTISVETSKNQFSLKLSSVTAADTAVYYCARDKWTWYFDLWGRGTLVTVSS
VL: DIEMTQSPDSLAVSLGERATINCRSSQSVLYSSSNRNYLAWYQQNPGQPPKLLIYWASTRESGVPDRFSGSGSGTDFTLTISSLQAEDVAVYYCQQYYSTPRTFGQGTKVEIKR
Regarding B11, in the assay with biotinylated ErbB3, the EC50 turned out to be 0.26 nM.
